Columns and labels:
NKp30-Fc (human) = NKp30-Fc (human) (UniProt O14931); experiment: BLI
CC3-Fc (human) = CC3-Fc (human) (UniProt O14931); experiment: BLI

| Kd (NKp30-Fc (human)) [nM] | Kd (CC3-Fc (human)) [nM] | Molecule |
| --- | --- | --- |
| 1300 | – | Soluble monomeric B7H6-His (from UniProt Q68D85 25-262) (domain or fragment) |
| – | 680 | Soluble monomeric B7H6-His (domain or fragment) DLKVEMMAGGTQITPLNDNVTIFCNIFYSQPLNITSMGITWFWKSLTFDKEVKVFEFFGDHQEAFRPGAIVSPWRLKSGDASLRLPGIQLEEAGEYRCEVVVTPLKAQGTVQLEVVASPASRLLLDQVGMKENEDKYMCESSGFYPEAINITWEKQTQKFPHPIEISEDVITGPTIKNMDGTFNVTSCLKLNSSQEDPGTVYQCVVRHASLHTPLRSNFTLTAARHSLSETEKTDNFS |
